What was measured:
[1] = biological target: VL1VH3-CD8ATD-CD137CSD-CD3zSSD fusion
[2] = biological target: VH2VL1-CD8ATD-CD137CSD-CD3zSSD fusion
[3] = biological target: VH3VL1-CD8ATD-CD137CSD-CD3zSSD fusion
[4] = biological target: VH1VL1-CD8ATD-CD137CSD-CD3zSSD fusion
Chain of VH1VL1-CD8ATD-CD137CSD-CD3zSSD fusion (chain, as listed by the source): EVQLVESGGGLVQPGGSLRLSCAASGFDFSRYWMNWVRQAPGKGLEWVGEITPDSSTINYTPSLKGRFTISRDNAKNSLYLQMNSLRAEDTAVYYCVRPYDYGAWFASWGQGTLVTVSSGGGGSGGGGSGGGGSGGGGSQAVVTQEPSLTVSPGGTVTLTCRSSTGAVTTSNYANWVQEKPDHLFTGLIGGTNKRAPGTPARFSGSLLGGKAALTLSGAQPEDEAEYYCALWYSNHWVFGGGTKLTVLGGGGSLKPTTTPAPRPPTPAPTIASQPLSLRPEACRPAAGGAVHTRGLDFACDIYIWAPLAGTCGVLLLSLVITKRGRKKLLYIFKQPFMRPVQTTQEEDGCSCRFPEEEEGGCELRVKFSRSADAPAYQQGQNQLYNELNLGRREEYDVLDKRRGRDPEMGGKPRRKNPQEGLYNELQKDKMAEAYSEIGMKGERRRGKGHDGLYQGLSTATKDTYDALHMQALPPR

Chain of VH3VL1-CD8ATD-CD137CSD-CD3zSSD fusion (chain, as listed by the source): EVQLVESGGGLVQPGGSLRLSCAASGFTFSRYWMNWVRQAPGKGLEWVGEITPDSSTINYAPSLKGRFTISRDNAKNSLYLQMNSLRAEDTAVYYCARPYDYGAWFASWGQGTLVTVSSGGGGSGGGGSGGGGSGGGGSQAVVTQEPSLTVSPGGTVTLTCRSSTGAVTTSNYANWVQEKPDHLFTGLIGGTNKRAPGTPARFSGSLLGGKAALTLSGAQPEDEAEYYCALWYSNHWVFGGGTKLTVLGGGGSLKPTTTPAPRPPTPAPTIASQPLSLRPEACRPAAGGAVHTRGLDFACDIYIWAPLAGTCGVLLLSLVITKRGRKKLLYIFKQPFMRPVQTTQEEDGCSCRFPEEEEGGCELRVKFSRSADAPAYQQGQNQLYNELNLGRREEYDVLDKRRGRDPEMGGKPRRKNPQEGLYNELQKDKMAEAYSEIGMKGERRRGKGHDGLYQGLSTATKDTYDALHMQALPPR
Chain of VH2VL1-CD8ATD-CD137CSD-CD3zSSD fusion (chain, as listed by the source): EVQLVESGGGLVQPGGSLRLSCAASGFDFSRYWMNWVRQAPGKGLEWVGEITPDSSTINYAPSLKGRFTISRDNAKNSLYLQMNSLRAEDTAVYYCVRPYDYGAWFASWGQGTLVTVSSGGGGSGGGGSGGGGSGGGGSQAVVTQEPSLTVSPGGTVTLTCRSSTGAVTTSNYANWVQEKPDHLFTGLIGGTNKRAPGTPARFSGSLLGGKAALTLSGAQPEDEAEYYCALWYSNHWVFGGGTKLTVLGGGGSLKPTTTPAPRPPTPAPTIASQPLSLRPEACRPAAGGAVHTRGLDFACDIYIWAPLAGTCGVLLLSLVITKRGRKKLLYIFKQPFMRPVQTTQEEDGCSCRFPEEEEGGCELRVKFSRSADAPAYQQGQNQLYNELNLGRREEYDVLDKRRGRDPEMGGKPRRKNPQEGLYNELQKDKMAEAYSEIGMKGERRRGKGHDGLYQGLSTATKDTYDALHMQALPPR
Chain of VL1VH3-CD8ATD-CD137CSD-CD3zSSD fusion (chain, as listed by the source): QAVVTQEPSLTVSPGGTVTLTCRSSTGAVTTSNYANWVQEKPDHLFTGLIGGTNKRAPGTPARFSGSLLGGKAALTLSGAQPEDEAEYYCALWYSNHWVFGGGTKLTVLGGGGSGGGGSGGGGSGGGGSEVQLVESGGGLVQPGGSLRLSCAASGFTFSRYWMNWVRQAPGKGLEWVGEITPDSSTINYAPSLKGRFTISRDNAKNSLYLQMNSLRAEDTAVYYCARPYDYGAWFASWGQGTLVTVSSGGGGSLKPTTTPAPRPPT

Substance: anti-CD20 (GA101) D246A P329G IgG1 (antibody)
- EC50 of NFAT-luciferase activation of anti-P329G CAR Jurkat cells, WSUDLCL2 target cells (5:1); VL1 x VH 3 [1]: 6.19 pM
- EC50 of NFAT-luciferase activation of anti-P329G CAR Jurkat cells, WSUDLCL2 target cells (5:1); table row VH2 x VL1 [2]: 10.4 pM
- EC50 of NFAT-luciferase activation of anti-P329G CAR Jurkat cells, WSUDLCL2 target cells (5:1); VH3 x VL1 [3]: 5.82 pM
- EC50 of NFAT-luciferase activation of anti-P329G CAR Jurkat cells, WSUDLCL2 target cells (5:1); VH1 x VL1 [4]: 8.14 pM
